Assay results taken from patent publication US20250019440A1 (Zymeworks, published 2025).
Positions count from the first letter of the chain named. In names and notes the source's numbering stands.

T1: Mouse CLDN18 A2.1 (mouse, UniProt P56857 10-264)
T1 construct: On transfected HEK293-6E cells; also called Mouse CLDN18 2.1; mouse CLDN18.2 ortholog
T1 chain: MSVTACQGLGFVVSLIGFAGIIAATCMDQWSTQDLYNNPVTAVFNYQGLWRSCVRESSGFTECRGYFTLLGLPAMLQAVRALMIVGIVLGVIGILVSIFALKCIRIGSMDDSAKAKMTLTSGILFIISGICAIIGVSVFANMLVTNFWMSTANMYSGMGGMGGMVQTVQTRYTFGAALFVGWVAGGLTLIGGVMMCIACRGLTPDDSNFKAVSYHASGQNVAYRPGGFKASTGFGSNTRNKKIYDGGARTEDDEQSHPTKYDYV

T2: Cynomolgus monkey CLDN18 (cynomolgus monkey)
T2 construct: On transfected HEK293-6E cells; also called Cyno CLDN18; cynomologus monkey CLDN18.2 ortholog
T2 chain: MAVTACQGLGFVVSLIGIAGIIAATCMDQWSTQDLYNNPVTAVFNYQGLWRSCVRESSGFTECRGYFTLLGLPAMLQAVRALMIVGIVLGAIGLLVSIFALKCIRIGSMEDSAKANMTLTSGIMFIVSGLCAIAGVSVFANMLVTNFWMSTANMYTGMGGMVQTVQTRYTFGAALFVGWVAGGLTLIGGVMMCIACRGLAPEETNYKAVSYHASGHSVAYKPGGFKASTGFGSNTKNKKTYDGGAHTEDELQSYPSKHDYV

B1: v38741 (other)
heavy 1: EVQLVESGGGLVQPGGSLRLSCAASGVTFNYYGMSWIRQAPGKGLEWVASITSSGGRIYYPDSVKGRFTISRENTQKTLYLQMNSLRAEDTAVYYCTLDGRDGWVAYWGQGTLVTVSSASTKGPSVFPLAPSSKSTSGGTAALGCLVKDYFPEPVTVSWNSGALTSGVHTFPAVLQSSGLYSLSSVVTVPSSSLGTQTYICNVNHKPSNTKVDKKVEPKSCDKTHTCPPCPAPEAAGGPSVFLFPPKPKDTLMISRTPEVTCVVVSVSHEDPEVKFNWYVDGVEVHNAKTKPREEQYNSTYRVVSVLTVLHQDWLNGKEYKCKVSNKALPAPIEKTISKAKGQPREPQVYVYPPSRDELTKNQVSLTCLVKGFYPSDIAVEWESNGQPENNYKTTPPVLDSDGSFALVSKLTVDKSRWQQGNVFSCSVMHEALHNHYTQKSLSLSPGGGGGSGQVQLVESGGGLVQPGGSLRLSCSVSGIDLSSNPMIWVRQAPGKGLQYIGIIDTDGSTYYADWAKGRFTISKDSTTVYLQINSPRAEDTAVYYCARRLHGSSNGYYDDLWGQGTLVTVSSGGGGSGGGGSGGGGSGGGGSDGQMTQSPSSVSASVGDRVTITCQASQSIYSYLSWYQQKPGQRPKLLIYKASTLASGVPSRFSGSGSGTDFTLTISSVQPEDFATYYCQQGYTVTNVDKNTFGGGTKVEIK
light: NPPTFSPALLVVTEGDNATFTCSFSNTSESFRLVWHRESPGYETDTLASFPEDRSTPLPDARFRVTQLPNGRDFHMSVVRARRNDSGTYVCGAIAFHPVIQIKESLRAELRVTEGGGGSGNFMLTQPHSVSESPGKTVTISCKRNTGNIGSNYVNWYQQHEGSSPTTIIYRNDKRPDGVSDRFSGSIDRSSKSASLTISNLKTEDEADYFCQSYSSGFIFGGGTKLTVLGQPKAAPSVTLFPPSSEELQANKATLVCLISDFYPGAVTVAWKADSSPVKAGVETTTPSKQSNNKYAASSYLSLTPEQWKSHRSYSCQVTHEGSTVEKTVAPTECS
heavy 2: QVQLVESGGGLVQPGGSLRLSCSVSGIDLSSNPMIWVRQAPGKGLQYIGIIDTDGSTYYADWAKGRFTISKDSTTVYLQINSPRAEDTAVYYCARRLHGSSNGYYDDLWGQGTLVTVSSGGGGSGGGGSGGGGSGGGGSDGQMTQSPSSVSASVGDRVTITCQASQSIYSYLSWYQQKPGQRPKLLIYKASTLASGVPSRFSGSGSGTDFTLTISSVQPEDFATYYCQQGYTVTNVDKNTFGGGTKVEIKAAEPKSSDKTHTCPPCPAPEAAGGPSVFLFPPKPKDTLMISRTPEVTCVVVSVSHEDPEVKFNWYVDGVEVHNAKTKPREEQYNSTYRVVSVLTVLHQDWLNGKEYKCKVSNKALPAPIEKTISKAKGQPREPQVYVLPPSRDELTKNQVSLLCLVKGFYPSDIAVEWESNGQPENNYLTWPPVLDSDGSFFLYSKLTVDKSRWQQGNVFSCSVMHEALHNHYTQKSLSLSPG
B2: v37407 (antibody, human IgG1, V domains shown)
VH: QVQLVESGGGLVQPGGSLRLSCSVSGIDLSSNPMIWVRQAPGKGLEYIGIIDTDGSTYYADWAKGRFTISKDSTTVYLQMNSLRAEDTAVYYCARRLHGSSNGYYDDLWGQGTLVTVSS
VL: DGQMTQSPSSVSASVGDRVTITCQASQSIYSYLSWYQQKPGQRPKLLIYKASTLASGVPSRFSGSGSGTDFTLTISSVQPEDFATYYCQQGYTVTNVDKNTFGGGTKVEIK
notes: Humanized, recombinant human IgG1-based monoclonal antibody; also called H4-L4
B3: v37408 (antibody, human IgG1, V domains shown)
VH: B2 VH
VL: B2 VL with F83A, I110V
notes: Humanized, recombinant human IgG1-based monoclonal antibody; also called H4-L2
B4: v37411 (antibody, human IgG1, V domains shown)
VH: B2 VH with E46Q, M80I, L83P
VL: B2 VL
notes: Humanized, recombinant human IgG1-based monoclonal antibody; also called H5-L4
B5: v37409 (antibody, human IgG1, V domains shown)
VH: QVQLVESGGGLVQPGGSLRLSCSVSGIDLSSNPMIWVRQAPGKGLEYIGIIDTDGSTYYADWAKGRFTISKDSSKNTVYLQMNSLRAEDTAVYYCARRLHGSSNGYYDDLWGQGTLVTVSS
VL: B2 VL
notes: Humanized, recombinant human IgG1-based monoclonal antibody; also called H2-L4
B6: v37410 (antibody, human IgG1, V domains shown)
VH: B5 VH with E46Q
VL: B2 VL
notes: Humanized, recombinant human IgG1-based monoclonal antibody; also called H3-L4
B7: v39000 - A132L (other)
heavy chain 1 (H1): B1 heavy 1
light chain (L1): NFMLTQPHSVSESPGKTVTISCKRNTGNIGSNYVNWYQQHEGSSPTTIIYRNDKRPDGVSDRFSGSIDRSSKSASLTISNLKTEDEADYFCQSYSSGFIFGGGTKLTVLGQPKAAPSVTLFPPSSEELQANKATLVCLISDFYPGAVTVAWKADSSPVKAGVETTTPSKQSNNKYAASSYLSLTPEQWKSHRSYSCQVTHEGSTVEKTVAPTECS
heavy chain 2 (H2): NPPTFSPALLVVTEGDNATFTCSFSNTSESFVLNWYRMSPSNQTDKLAAFPEDRSQPGQDARFRVTQLPNGRDFHMSVVRARRNDSGTYLCGAISLAPKLQIKESLRAELRVTEGGGGSGQVQLVESGGGLVQPGGSLRLSCSVSGIDLSSNPMIWVRQAPGKGLQYIGIIDTDGSTYYADWAKGRFTISKDSTTVYLQINSPRAEDTAVYYCARRLHGSSNGYYDDLWGQGTLVTVSSGGGGSGGGGSGGGGSGGGGSDGQMTQSPSSVSASVGDRVTITCQASQSIYSYLSWYQQKPGQRPKLLIYKASTLASGVPSRFSGSGSGTDFTLTISSVQPEDFATYYCQQGYTVTNVDKNTFGGGTKVEIKAAEPKSSDKTHTCPPCPAPEAAGGPSVFLFPPKPKDTLMISRTPEVTCVVVSVSHEDPEVKFNWYVDGVEVHNAKTKPREEQYNSTYRVVSVLTVLHQDWLNGKEYKCKVSNKALPAPIEKTISKAKGQPREPQVYVLPPSRDELTKNQVSLLCLVKGFYPSDIAVEWESNGQPENNYLTWPPVLDSDGSFFLYSKLTVDKSRWQQGNVFSCSVMHEALHNHYTQKSLSLSPG

Molecular target: T3, Human PD-L1 (human, UniProt Q9NZQ7 19-239)
T3 construct: Amine-coupled to a CM5 chip for SPR; also called recombinant human PD-L1
Assay: SPR, PD-L1 amine-coupled, variant as analyte, 1:1 model

T3 sequence (Q9NZQ7 19-239 limits assumed): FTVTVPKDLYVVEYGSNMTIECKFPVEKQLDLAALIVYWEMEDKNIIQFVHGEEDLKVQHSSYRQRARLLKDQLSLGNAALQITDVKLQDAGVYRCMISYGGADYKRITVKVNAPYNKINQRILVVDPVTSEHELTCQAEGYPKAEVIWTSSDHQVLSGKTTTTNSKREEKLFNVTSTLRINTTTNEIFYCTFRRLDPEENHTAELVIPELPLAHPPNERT

Binder | Kd [nM]
B1 | 95

Molecular target: T4, Human CLDN18.2 (human)
T4 construct: On transfected HEK293-6E cells; also called Claudin18.2
Assay: FACS on transfected HEK293-6E cells, 4 parameter logistic fit

Binder | Bmax | EC50 [nM]
B2 | 2040 | 1.54
B3 | 2190 | 1.87
B4 | 2170 | 1.05
B5 | 1960 | 1.22
B6 | 1910 | 0.97

Molecular target: T1, Mouse CLDN18 A2.1
Assay: as above

Binder | Bmax | EC50 [nM]
B2 | 1540 | 0.8
B3 | 1920 | 2.65
B4 | 1790 | 1.03
B5 | 1530 | 0.89
B6 | 1690 | 1.02

Molecular target: T2, Cynomolgus monkey CLDN18
Assay: as above

Binder | Bmax | EC50 [nM]
B2 | 1410 | 0.24
B3 | 1520 | 0.36
B4 | 1730 | 0.37
B5 | 1500 | 0.35
B6 | 1500 | 0.31

Molecular target: PD-L1 on cells (UniProt Q9NZQ7 19-290, limits assumed)
Assay: cell-based or functional assay

Sequence of PD-L1 on cells (Q9NZQ7 19-290 limits assumed): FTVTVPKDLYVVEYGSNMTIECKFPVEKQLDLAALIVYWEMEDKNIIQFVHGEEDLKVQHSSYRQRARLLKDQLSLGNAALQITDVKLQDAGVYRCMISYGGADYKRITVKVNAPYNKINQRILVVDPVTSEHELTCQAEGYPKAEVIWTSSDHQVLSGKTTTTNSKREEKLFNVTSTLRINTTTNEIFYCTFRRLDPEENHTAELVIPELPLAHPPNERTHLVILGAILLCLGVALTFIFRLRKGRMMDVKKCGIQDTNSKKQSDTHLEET

Binder | EC50 (read off the curve); hybrid PD-1/PD-L1 reporter gene assay, delta RLU, PD-1+ Jurkat T cells with SNU-620 cells, top right graph; composite signal of CD3 engagement and PD-1:PD-L1 blockade [nM]
B7 | ~0.04

Molecular target: T5, Human CLDN18.1 (human, UniProt P56856 1-261)
T5 construct: On transfected HEK293-6E cells
Assay: FACS, Expi293F supernatants on transfected HEK293-6E cells

T5 sequence (P56856 whole entry): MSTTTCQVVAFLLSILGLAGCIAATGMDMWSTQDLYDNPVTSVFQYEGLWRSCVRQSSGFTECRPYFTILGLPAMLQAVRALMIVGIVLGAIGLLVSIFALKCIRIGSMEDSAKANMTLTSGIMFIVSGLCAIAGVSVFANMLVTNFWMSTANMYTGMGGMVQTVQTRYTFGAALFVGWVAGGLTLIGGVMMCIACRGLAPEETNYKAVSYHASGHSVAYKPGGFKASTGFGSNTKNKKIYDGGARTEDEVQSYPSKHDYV

Binder | binding result
B2 | no binding
B3 | no binding
B4 | no binding
B5 | no binding
B6 | no binding

Molecular target: Human CD3 (recombinant) (human)
Assay: SPR, CD3 amine-coupled, variant as analyte, 1:1 model

Sequence of Human CD3 (recombinant) (human) (chain, as listed by the source): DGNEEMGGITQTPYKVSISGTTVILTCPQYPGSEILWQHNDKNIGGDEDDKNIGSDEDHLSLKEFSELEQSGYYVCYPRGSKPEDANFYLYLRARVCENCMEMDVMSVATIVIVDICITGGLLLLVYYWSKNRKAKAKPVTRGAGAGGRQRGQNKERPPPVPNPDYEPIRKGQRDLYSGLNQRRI

Binder | Kd [nM]
B1 | 18
